This data set is described as follows: yeast display, Sf9 membrane polyspecificity reagent, FACS + sequencing; frameworks hold sequencing errors. An outline of the steps:
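Sorting gates, low and high (top ~1%), were placed on anti-HA fluorescence to track expression and on streptavidin fluorescence to track reagent binding. A clone's polyreactivity label is taken from the gate it came out of. The reagent was 10% biotinylated, detergent-solubilized Sf9 membrane, applied for 1 hour at 4 °C to galactose-induced yeast display cells.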
Regarding “QVQLVESGGGLVQAGGSLSLSCAASGLTFQEYAMRWYRQAPGKERELVAAISWSGGSTYYADSVKGRFTISRDNAKNTVYLQMNSLKPEDTAVYYCAAEAYEEYITGWYAYDYWGQGTQVTVSS”, the “polyreactivity (PSR sort gate)” value is given as “high polyreactivity”.

Take “QVQLVESGGGLVQAGGSLRLSCAASGRILYSYAMGWYRQAPGKERELVADITQRGGTTDYADSVKGRFTISRDNAKTTVYVQMNSLKPEDTAVYYCNANSYRSYGGRGGVEYDYWGEGTQVTVSS”: the “polyreactivity (PSR sort gate)” value is recorded as “low polyreactivity”.

Turning to “QVQLVESGGGLVQAGGSLRLSCAASGFIFQSYAMGWYRQAPGKERELVAAISASGGRTYYADSVKGRFTISRDNAKNTVYLQMNSLKPEDNAVYYCNARPAGRGYNYWGQGTQVTVSS”, the “polyreactivity (PSR sort gate)” value was “high polyreactivity”.

As to “QVQLHESGGGLVQSGGSLRLSCAASGTISYAGPMGWYPQAPGKEREFVAGIGVGSNTNYADSVKGRYTIIRDNAKNTVYLQMNSLKPVDTAVYYCAVGGYAPLGRPYCGQGTQVTVSS”, the “polyreactivity (PSR sort gate)” value is given as “low polyreactivity”.

As to “QVQLVESGGGLVQAGGSLRLSCAASGITFSRYTMGWYRQAPGKERELVAGISSRGGSTYYADSVKGRFTISRDNAKNTVYLQMNSLKPEDTAVYYCAADGEHYPWYYYWGQGTQVTVSS”, the “polyreactivity (PSR sort gate)” value is on record as “high polyreactivity”.

Turning to “QVQLHESGGGLVQAGGSLRMSCAASGTISVTYNKGWYRQAPGKEREFVAGNSTGATTNYADSVKGRFTISRDNAKNCVYLQMNSLKPDDTAVYYCAAHIYRQDHFYYWGQGTQVTVSS”, the “polyreactivity (PSR sort gate)” value was “low polyreactivity”.

Regarding “QVQLVESGGGLVQAGGSLRLSCAASGLTFLYYAMGWYRQAPGKERELVAAISRSGGSTYYADSVKGRFTISRDNAKNTVYLQMNSLKPEDTAVYYCAAGRRGGKQGGTRGGDYWGQGTQVTVSS”, the “polyreactivity (PSR sort gate)” value was “high polyreactivity”.

Consider “QVQVVESGGGLVQAGGSLRLSCAASGRTFRDNAMGWYRQAPGNERELVAAISRSGGRTYYADSVKGRCTISRDNAKNTVYLQMNSLKPEDTAVYYCAAYYYTAGDSSARYDYWGQGTQVTVSS”, for which the “polyreactivity (PSR sort gate)” value is “high polyreactivity”.

Take “QVQLVESGGGLVQAGGTLRLSCAASGYTSSLNAMRWYRQAPGKERELVARITTDGTSTYYADSVKGRFTISRDNAKNTVYLQMNSLKPEDTAVYYCNARYPAYGVRSWYPYAYYYWGQGTQVTVSS”: the “polyreactivity (PSR sort gate)” value is on record as “low polyreactivity”.

In the case of “QVQLVESGGGLVQAGGSLRLSCAASGFIFTIYVMGWYRQAPGKERELVAAISKSVGRTYYADSVKGRFTISRDNAKNTVYLQMNSLKPEDTAVYYCAAVYVKYYGGSYDYWGQGTQVTVSS”, the “polyreactivity (PSR sort gate)” value is on record as “high polyreactivity”.

“QVQLVESGGGLVQAGGSLRLSCASSGRIFPYYAMGRYRQAPGKERDLVAAITSVGSTNYADSVKGRFTISRDNAKNTVYLQINSLKPEDTAVYYCAAESTEGTSGDYDYWAQGTQVTVSS”: the “polyreactivity (PSR sort gate)” value was “low polyreactivity”.

Consider “QVQLVESGGGLVQAGGSLRLSCAASGITFSPYTMGWYRQAPGKERELVAAINSGGRTNYADSVKGRFTISRDNAKNTVYLQMNSLKPEDTAVYYCTKRGHPARLGYYYWGQGTQVTVSS”, for which the “polyreactivity (PSR sort gate)” value is listed as “low polyreactivity”.

Regarding “QVQLVESGGGLVQAGGSLRLSCAASGRTFYYYTMGWYRQAPGKERELVAAITWNGGSTYYADSVKGRFTISRDNAKNTVYLQMNSLKPEDTAVYYCNARWTWRYDYWGQGTQVTVSS”, the “polyreactivity (PSR sort gate)” value is “high polyreactivity”.

For the sequence “QVQLVESGGGLVQAGGSLRLSCAASGRTFRWYGMGWYRQAPGKEREFVAAISFRGGTTYYADSVKGRFTISRDNAKNTVYLQMNSLKPEDTAVYYCAARYGYYTSDYKYYYWGQGTQVTVSS”, the “polyreactivity (PSR sort gate)” value is on record as “high polyreactivity”.

For the sequence “QVQLVESGGGLVHAGGSLRLSCAASGSIITYYAMGWSRQAPGKERELVAVISASGGRTYYADSVKVRFTISLDNAMYSVYLQMNSLKPEDTAVYYCAAYRSIYSFKFGYWGQGSQVTVSS”, the “polyreactivity (PSR sort gate)” value is reported as “high polyreactivity”.

As to “QVQLVESGGGLDQAGGSLRLSCAASGGILVIYAMGWYRQEPGKERELVAAINVSGGSTYYADSVKGRFTISRDNAKNTVYLQMNSLKPEDTAVYYCAALGPYLDYGVQYGYWGQGTQVTVSS”, the “polyreactivity (PSR sort gate)” value was “low polyreactivity”.

As for “QVQLVESGGGLVQAGGSLRLSCAASGRTFGNYVMGWYRQAPGKERELVAAIRSGTNTYYADSVKGRFTISLDNAKNTVYLQMNSLKPEVTAVYYCNKYVRTTDYDYWGQGIQVTVSS”, the “polyreactivity (PSR sort gate)” value is listed as “high polyreactivity”.

“QVQIVESGGGLVQAGGSLRLSCAASGITFSSYAMGWYRQAPGKERELVAAITRTGGRTYYADSVKGRFTISRDNAKNTVYLQMNSLKPEDTAVYYCAAYYIAYYYWGQGTQVTVSS”: the “polyreactivity (PSR sort gate)” value is reported as “high polyreactivity”.

Take “QVQLVESGGGLVQAGGSLRLTCAASGRIFAVYAMGWYRQAPGKERELVATISSSGSTHYADSVKGRFTISRDNAKNTVYLQMNSLKPEDTAVYYCNAGGSELKLGHDYWGQGTQVTVSS”: the “polyreactivity (PSR sort gate)” value is reported as “low polyreactivity”.

With “QVQLVESGGGLVQAGGSLRLSCAASGSILKYYAMGWYRQAPGKERELVAAISSGGSTYYADSVKGRFTISRDNAKNTVYLQMNSLKPEDTAVYYCAAAWYGAKYIVLYDYWGQGTQVTVSS”, the “polyreactivity (PSR sort gate)” value is “low polyreactivity”.

“QVQLVESGGGLVQAGGSLRLSCAASGLILANYAMGWYRQAPGKDRELVAAISSSGGSTYYADSVKGRFTISRDNAKNTVYLQMNSLKPEDTAVYYCAAYPLYRRRWTGDYWGQGTQVTVSS”: the “polyreactivity (PSR sort gate)” value was “high polyreactivity”.

Regarding “QVQIVESGGGLVQAGGSLRLSCAASGRIFYWNVMGWYRQAPGKERELVAAITRSSGGTSTYADSVKGRFTISRVNAKNTVYLQMNSLKPEDTAVYYCATRRRQAKSGRAYDYWGQGTQVTVSS”, the “polyreactivity (PSR sort gate)” value is on record as “high polyreactivity”.

As for “QVQLQESGGGLVQAGGSLRLSCAASGSISHYIFMGWYRQAPGKEREFVAGIGYGGTTNYADSVKGRFTISRDNAKNTVYLQMNSLKPEDTAVYYCAAVSIYWGQGTQVTVSS”, the “polyreactivity (PSR sort gate)” value is on record as “low polyreactivity”.

Take “QVQLVESGGGVVQAGGSLRLSCAASGRIFNWYAMGWYRQAPGKEREFVAAINWNGDSTHYADSVKGRFTISRDNAKNTVYLLMNSLKPEDTAVYYCNARVFVTRSYYWGQGTQVNVSS”: the “polyreactivity (PSR sort gate)” value is “low polyreactivity”.

On to “QVQLVESGGGLVQAGGSLRLSCAASGITFSTYAMGWYRQAPGKERELVAAINWSGGSTRYADSVKGRFTISRDNAKNTVYLQMNSLKPADTAVYYCAAEVQGQVGEFDYWGQGTQVTVSS”, for which the “polyreactivity (PSR sort gate)” value was “low polyreactivity”.

With “QVQLVESGGGLVQAGGSLRLSCAASGRIFFYYAMGWYRQAPGKERELVATITASGDSTYYADSVKGRFTISRDNAKNTVYLQMNSLKPEDTAVYYCAADDGDYYEVDYWGQGTQVTVSS”, the “polyreactivity (PSR sort gate)” value is “low polyreactivity”.

For the sequence “QVQLVESGGGLVQAGGSLRLSCAASGYTFSYNAMGWYRQAPGKERELVAAISRSGGSTYYADSVKGRFTISRDNAKNTVYLQMNSLKPEDTAVYYCAAKRVSVPYGYWGQGTQVTVSS”, the “polyreactivity (PSR sort gate)” value was “high polyreactivity”.

Take “QVQLVESGGGLVQAGGSFRLTCAASGRIFSPNAMGWYRQATGKEREFVAAINDRGGNTYYADSVKGRFTISRDNAKNTVYLQMNSLKPEDTAVYYCAATVTVFYTRYYYWGQGTQVTVSS”: the “polyreactivity (PSR sort gate)” value is reported as “high polyreactivity”.

Turning to “QVQLVESGGGLVQAGGSLRLSCAASGSIFVGYAMGWYRQAPGKERELVAAISVRGASTYYADSVKGRFTISRDNAKNTVYLQMNSLKPEDTAVYYCAARGNTPRTRRYGYWGQGTQVTVSS”, the “polyreactivity (PSR sort gate)” value was “high polyreactivity”.

Take “QVQLVESGGGLVQAGGSLRLSCAASGSTFQTNAMGWYRQAPGKERELVAAINSGGGTNYADSVKGRFTFSRDNAKYTVYLQMNSLKPEDSAVYYCAAAYFDFWGWLHDYWGQGTQVTVSS”: the “polyreactivity (PSR sort gate)” value was “low polyreactivity”.

Source of the values: the nanobody polyreactivity screen of Harvey et al. (2022).
